Measurements: article PMC9214244, “Multivalent Interaction of Beta-Catenin With its Intrinsically Disordered Binding Partner Adenomatous Polyposis Coli” (Frontiers in Molecular Biosciences, 2022)
Where two headings read alike, the source gives them in different places.

Key:
Test in all cases: fluorescence polarisation; fluorescence anisotropy; β-catenin titrated into 10 nM fluorescein-labelled APC construct; PBS, 1 mM DTT; 15°C; adjusted anisotropy fitted to a Hill equation
[1] = molecular target: APCabc with the flexible linker (FL) inserted between residues 1,500 and 1,501, fluorescein-labelled at Cys 1501 (UniProt P25054)
[2] = molecular target: APCabc, third 20aa repeat (R3) region of APC with subdomains a, b and c, fluorescein-labelled at Cys 1501 (UniProt P25054)
[3] = molecular target: APCbc, APC R3 subdomains b and c (residues 1,483–1,533), fluorescein-labelled at Cys 1501 (UniProt P25054)
[4] = molecular target: pAPCabc D1486S, fluorescein-labelled at Cys 1501 (UniProt P25054)
[5] = molecular target: pAPCabc with the flexible linker (FL) inserted between residues 1,478 and 1,479, fluorescein-labelled at Cys 1501 (UniProt P25054)
[6] = molecular target: pAPCabc with the flexible linker (FL) inserted between residues 1,500 and 1,501, fluorescein-labelled at Cys 1501 (UniProt P25054)
[7] = molecular target: pAPCabc with the polyproline linker (PP) inserted between residues 1,500 and 1,501, fluorescein-labelled at Cys 1501 (UniProt P25054)
[8] = molecular target: pAPCabc, full-length R3 domain APCabc containing all five phosphomimetics, fluorescein-labelled at Cys 1501 (UniProt P25054)
[9] = molecular target: pAPCc, phospho domain c of APC R3 in the phosphomimetic form, fluorescein-labelled at Cys 1501 (UniProt P25054)
[10] = molecular target: pAPCabc D1486S, fluorescein-labelled at Cys 1501 (UniProt P25054); remark: listed apart in the source

armadillo (ARM) repeat domain of human β-catenin (residues 134–671), sequence (P35222 other isoform, or with tags, fused parts or gaps): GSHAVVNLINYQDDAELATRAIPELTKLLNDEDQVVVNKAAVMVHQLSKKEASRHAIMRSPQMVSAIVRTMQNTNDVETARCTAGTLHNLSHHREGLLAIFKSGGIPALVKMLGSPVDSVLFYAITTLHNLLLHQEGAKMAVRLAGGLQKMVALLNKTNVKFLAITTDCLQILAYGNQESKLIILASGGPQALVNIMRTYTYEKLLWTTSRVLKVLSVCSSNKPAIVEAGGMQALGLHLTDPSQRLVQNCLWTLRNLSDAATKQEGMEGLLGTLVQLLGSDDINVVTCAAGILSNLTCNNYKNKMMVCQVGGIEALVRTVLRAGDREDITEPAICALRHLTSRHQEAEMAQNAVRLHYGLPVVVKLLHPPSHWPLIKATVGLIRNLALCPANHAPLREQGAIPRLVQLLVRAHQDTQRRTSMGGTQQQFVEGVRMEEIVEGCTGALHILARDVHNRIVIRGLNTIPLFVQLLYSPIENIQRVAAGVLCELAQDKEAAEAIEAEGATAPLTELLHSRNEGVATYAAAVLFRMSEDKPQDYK

Kd [1]: 0.0283 µM | Kd [2]: 0.0165 µM | Kd [3]: 0.196 µM | Kd [4]: 0.0214 µM | Kd [5]: 0.0187 µM | Kd [6]: 0.0109 µM | Kd [7]: 0.0164 µM | Kd [8]: 0.0053 µM | Kd [9]: 0.16 µM | Kd [10]: 0.03 µM
Substance: armadillo (ARM) repeat domain of human β-catenin (residues 134–671) (from UniProt P35222 134-671) (domain or fragment)
